According to patent US20220348651A1, “ENTPD2 ANTIBODIES, COMBINATION THERAPIES, AND METHODS OF USING THE ANTIBODIES AND COMBINATION THERAPIES” (Novartis AG, priority 2019, published 2022):

Legend:
B16LM3 tumor model = assay: Syngeneic B16LM3 tumor model, combination with anti-PD-1 Ab; format: in vivo, C57BL/6 mice; conditions: mAb13 15 mg/kg in combination with anti-PD-1 Ab 10 mg/kg i.p., days 1, 5, 8, 12, 15; relative to No Treatment, Isotype Control or anti-PD-1 Ab
Protocol: B16LM3 model was established in female C57BL/6 mice by subcutaneous injection of 0.5×10^6 cells into the right flank of each mouse. The day after implant mice were randomized into treatment groups (n=10 per group). Mice received treatments of either anti-mouse ENTPD2 mAb13 or a non-specific mIgG2a isotype control (clone MOPC-173, BioLegend, San Diego, Calif.) at a final dose 15 mg/kg on Day 1, 5, 8, 12, 15.
Anti-PD-1 Ab (clone RMP1-14 Bio X Cell, West Lebanon, N.H.) or non-specific rIgG2a isotype control (clone RTK2758, BioLegend, San Diego, Calif.) were delivered i.p. at a final dose of 10 mg/kg on days 1, 5, 8, 12, 15. All doses were adjusted to individual mouse body weights.

mouse ENTPD2 = target: T1, mouse ENTPD2 (Mus musculus, UniProt O55026); assay: Mouse ENTPD2 NIH/3T3 cell-based functional assay
T1 construct: expressed in transfected cells; host or cells: NIH/3T3 (retroviral transduction)
T1 sequence (O55026 1-495): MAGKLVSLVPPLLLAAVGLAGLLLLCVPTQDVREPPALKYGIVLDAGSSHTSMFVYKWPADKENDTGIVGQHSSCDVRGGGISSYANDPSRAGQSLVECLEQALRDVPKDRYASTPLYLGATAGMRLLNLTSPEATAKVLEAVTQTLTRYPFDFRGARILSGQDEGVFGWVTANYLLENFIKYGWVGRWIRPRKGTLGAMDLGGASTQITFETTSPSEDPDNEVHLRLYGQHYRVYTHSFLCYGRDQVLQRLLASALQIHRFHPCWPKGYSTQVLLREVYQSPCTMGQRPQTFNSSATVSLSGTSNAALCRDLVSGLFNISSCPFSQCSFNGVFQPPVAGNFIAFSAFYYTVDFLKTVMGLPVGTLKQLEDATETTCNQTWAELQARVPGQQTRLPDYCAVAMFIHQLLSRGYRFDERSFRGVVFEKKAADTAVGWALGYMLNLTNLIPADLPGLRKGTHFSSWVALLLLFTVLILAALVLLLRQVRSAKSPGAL
Source text: Biochemical and cell-based functional assays were developed in-house to understand functional impact of anti-ENTPD2 Abs against purified extracellular domain of ENTPD2 (residues 29-462), as well as against the fully intact protein in the context of the native cell-based conformation. ENTPD2 hydrolyzes ATP to ADP, which can subsequently be detected using the HTRF Transcreener ADP2 TR-FRET Red Assay (BellBrook Labs, Madison, Wis.) where ENTPD2-produced ADP would compete with the ADP Tracer for binding to the anti-ADP-Tb antibody. The resulting signal is inversely proportional to the concentration of ADP in the sample.
To establish cell-based functional assays, human/cyno/mouse ENTPD2-engineered NIH/3T3 cells or RKO (ATCC, Manassa Va.) colorectal cancer cells with endogenous ENTPD2 expression were plated overnight at 150, 200 and 250 cells per well for NIH/3T3 mouse, cyno and human ENTPD2 lines, respectively, or 1000 cells per well for RKO in 384-well tissue culture plate, in 30 μl per well (Perkin Elmer, Waltham, Mass.). The following day cells were pre-incubated with Anti-ENTPD2 Abs in dose response for 60 min at 37° C., 5% CO2 (10 μl of 5× antibody dose per well), and subsequently stimulated with a final concentration of 10 μM ATP (Teknova, Hollister, Calif.) for 20 minutes at room temperature (10 μl of 5× (50 μM) ATP per well). Reactions were quenched with 40 mM EDTA/40 mM EGTA, 25 μl per well, and 15 μl of quenched media was transferred to low volume Proxiplates (PerkinElmer, Waltham, Mass.) for ADP detection. ADP production was detected with the Transcreener ADP2 TR-FRET Red Assay (BellBrook Labs, Madison, Wis.) with a final concentration of 4 nM ADP2 antibody and 13.4 nM of ADP Tracer in wells (4× solution was prepared and 5 μL of “Detection Reagent Mix” was added to the quenched conditioned media). Plates were incubated with detection reagents for 1 hour at room temperature prior to reading plates in HTRF mode.
HTRF signal (Emission at 620 nm and 665 nm) was assessed in both assays using the Envision plate reader in HTRF mode (Perkin Elmer, Waltham, Mass.). HTRF ratio was determined using the following formula: HTRF ratio=R=Emission at 665 nm/Emission at 620 nm×10,000. Subsequently % Residual Activity and % Inhibition were determined as follows:
Where R0% is the HTRF ratio of the negative control (0% enzyme activity), and R100% is the HTRF ratio of the positive control (100% enzyme activity). Data were analyzed in Microsoft Excel and graphed using GraphPad's Prism 7.0 software and IC50 values were obtained using non-linear regression, log (agonist) vs. response-variable slope (four parameters) analysis.
Anti-ENTPD2 mAb13 was identified as a mouse ENTPD2 selective Ab (FACS EC50 3-4 nM) with no binding to human or cyno ENTPD2.

B1: mAb13: anti-mouse ENTPD2 antibody; HC SEQ ID NO: 193, LC SEQ ID NO: 204 (antibody)
heavy: QVQLVQSGAELKQPGQSVKISCKASGYTFTHYGMNWVKQAPGQGLKWMGWINTDTGNPTYADDFKGRFVFSLDTSVSTAYLQISNLKNEDTATYYCVRYGTLYSGYGFFFDSWGQGTLVTVSSAKTTAPSVYPLAPVCGDTTGSSVTLGCLVKGYFPEPVTLTWNSGSLSSGVHTFPAVLQSDLYTLSSSVTVTSSTWPSQSITCNVAHPASSTKVDKKIEPRGPTIKPCPPCKCPAPNLLGGPSVFIFPPKIKDVLMISLSPIVTCVVVDVSEDDPDVQISWFVNNVEVHTAQTQTHREDYNSTLRVVSALPIQHQDWMSGKEFKCKVNNKDLPAPIERTISKPKGSVRAPQVYVLPPPEEEMTKKQVTLTCMVTDFMPEDIYVEWTNNGKTELNYKNTEPVLDSDGSYFMYSKLRVEKKNWVERNSYSCSVVHEGLHNHHTTKSFSRTPGK
light: DIMMTQSPSSLSVSAGEKATITCKSSQSLFNSNTNKNYLNWYLQKPGQSPKLLFYYASTRHTGVPDRFIGSGSGTDFTLTITSVQDEDLADYYCQQWYSYPWTFGPGTKLEIKRADAAPTVSIFPPSSEQLTSGGASVVCFLNNFYPKDINVKWKIDGSERQNGVLNSWTDQDSKDSTYSMSSTLTLTKDEYERHNSYTCEATHKTSTSPIVKSFNRNEC
B1 was tested, and the mouse survival (B16LM3 tumor model) was “significantly extended mouse survival”, the “maximum target inhibition (mouse ENTPD2 inhibition)” value (mouse ENTPD2; NIH3T3-mouse ENTPD2 engineered cell line) was 44% and the “% Inhibition at 100 nM (±Std Err)” value (mouse ENTPD2; mouse ENTPD2 NIH/3T3 cells, 100 nM) was 44 ± 7.3%.
